Measurements as given in patent US20200223889A1 (Novo Nordisk, published 2020).
Positions of bridges follow the written chain, without caps; N, C: chain ends. Non-standard residues stand in square brackets, D forms with d. Cit = NC(=O)NCCC[C@H](N)C(=O)O; Api = NC1(C(=O)O)CCNCC1

B1: Chem. 5 (peptide)
peptide: cyclo(CH[dF]RWACH[dF]RWA)
modifications: disulfide 1-7
SMILES: C[C@@H]1NC(=O)[C@H](Cc2c[nH]c3ccccc23)NC(=O)[C@H](CCCNC(=N)N)NC(=O)[C@@H](Cc2ccccc2)NC(=O)[C@H](Cc2c[nH]cn2)NC(=O)[C@@H]2CSSC[C@H](NC1=O)C(=O)N[C@@H](Cc1c[nH]cn1)C(=O)N[C@H](Cc1ccccc1)C(=O)N[C@@H](CCCNC(=N)N)C(=O)N[C@@H](Cc1c[nH]c3ccccc13)C(=O)N[C@@H](C)C(=O)N2
notes: also called c[c[Cys-His-D-Phe-Arg-Trp-Ala-Cys]-His-D-Phe-Arg-Trp-Ala]
B2: Chem. 1 (peptide)
peptide: cyclo(CH[dF]RWECH[dF]RWE)
modifications: disulfide 1-7
SMILES: N=C(N)NCCC[C@@H]1NC(=O)[C@@H](Cc2ccccc2)NC(=O)[C@H](Cc2c[nH]cn2)NC(=O)[C@@H]2CSSC[C@H](NC(=O)[C@H](CCC(=O)O)NC(=O)[C@H](Cc3c[nH]c4ccccc34)NC1=O)C(=O)N[C@@H](Cc1c[nH]cn1)C(=O)N[C@H](Cc1ccccc1)C(=O)N[C@@H](CCCNC(=N)N)C(=O)N[C@@H](Cc1c[nH]c3ccccc13)C(=O)N[C@@H](CCC(=O)O)C(=O)N2
notes: also called c[c[Cys-His-D-Phe-Arg-Trp-Glu-Cys]-His-D-Phe-Arg-Trp-Glu]
B3: Chem. 50 (peptide)
peptide: cyclo(C[Api]H[dF]HWC[Api]H[dF]HW)
modifications: disulfide 1-7
SMILES: O=C1N[C@H]2CSSC[C@H](NC(=O)[C@H](Cc3c[nH]c4ccccc34)NC(=O)[C@H](Cc3c[nH]cn3)NC(=O)[C@@H](Cc3ccccc3)NC(=O)[C@H](Cc3c[nH]cn3)NC(=O)C3(CCNCC3)NC2=O)C(=O)NC2(CCNCC2)C(=O)N[C@@H](Cc2c[nH]cn2)C(=O)N[C@H](Cc2ccccc2)C(=O)N[C@@H](Cc2c[nH]cn2)C(=O)N[C@H]1Cc1c[nH]c2ccccc12
notes: also called c[c[Cys-ACP-His-D-Phe-His-Trp-Cys]-ACP-His-D-Phe-His-Trp]
B4: Chem. 52 (peptide)
peptide: cyclo(CKH[dF]HWCKH[dF]HW)
modifications: disulfide 1-7
SMILES: NCCCC[C@@H]1NC(=O)[C@@H]2CSSC[C@H](NC(=O)[C@H](Cc3c[nH]c4ccccc34)NC(=O)[C@H](Cc3c[nH]cn3)NC(=O)[C@@H](Cc3ccccc3)NC(=O)[C@H](Cc3c[nH]cn3)NC1=O)C(=O)N[C@@H](CCCCN)C(=O)N[C@@H](Cc1c[nH]cn1)C(=O)N[C@H](Cc1ccccc1)C(=O)N[C@@H](Cc1c[nH]cn1)C(=O)N[C@@H](Cc1c[nH]c3ccccc13)C(=O)N2
notes: also called c[c[Cys-Lys-His-D-Phe-His-Trp-Cys]-Lys-His-D-Phe-His-Trp]
B5: Chem. 53 (peptide)
peptide: cyclo(CEH[dF]HWCEH[dF]HW)
modifications: disulfide 1-7
SMILES: O=C(O)CC[C@@H]1NC(=O)[C@@H]2CSSC[C@H](NC(=O)[C@H](Cc3c[nH]c4ccccc34)NC(=O)[C@H](Cc3c[nH]cn3)NC(=O)[C@@H](Cc3ccccc3)NC(=O)[C@H](Cc3c[nH]cn3)NC1=O)C(=O)N[C@@H](CCC(=O)O)C(=O)N[C@@H](Cc1c[nH]cn1)C(=O)N[C@H](Cc1ccccc1)C(=O)N[C@@H](Cc1c[nH]cn1)C(=O)N[C@@H](Cc1c[nH]c3ccccc13)C(=O)N2
notes: also called c[c[Cys-Glu-His-D-Phe-His-Trp-Cys]-Glu-His-D-Phe-His-Trp]
B6: Chem. 55 (peptide)
peptide: cyclo(CKH[dF][Cit]WCKH[dF][Cit]W)
modifications: disulfide 1-7
SMILES: NCCCC[C@@H]1NC(=O)[C@@H]2CSSC[C@H](NC(=O)[C@H](Cc3c[nH]c4ccccc34)NC(=O)[C@H](CCCNC(N)=O)NC(=O)[C@@H](Cc3ccccc3)NC(=O)[C@H](Cc3c[nH]cn3)NC1=O)C(=O)N[C@@H](CCCCN)C(=O)N[C@@H](Cc1c[nH]cn1)C(=O)N[C@H](Cc1ccccc1)C(=O)N[C@@H](CCCNC(N)=O)C(=O)N[C@@H](Cc1c[nH]c3ccccc13)C(=O)N2
notes: also called c[c[Cys-Lys-His-D-Phe-Cit-Trp-Cys]-Lys-His-D-Phe-Cit-Trp]
B7: Chem. 62 (peptide)
peptide: cyclo(CPH[dF]HWCAKKKW)
modifications: disulfide 1-7
notes: also called c[c[Cys-Pro-His-D-Phe-His-Trp-Cys]-Ala-Lys-Lys-Lys-Trp]
B8: Chem. 75 (peptide)
peptide: cyclo(CPH[dF]HWCKKKKW)
modifications: disulfide 1-7
notes: also called c[c[Cys-Pro-His-D-Phe-His-Trp-Cys]-Lys-Lys-Lys-Lys-Trp]
B9: Chem. 57 (peptide)
peptide: cyclo(CAH[dF]QWCAK[dK]KW)
modifications: disulfide 1-7
SMILES: C[C@@H]1NC(=O)[C@@H]2CSSC[C@H](NC(=O)[C@H](Cc3c[nH]c4ccccc34)NC(=O)[C@H](CCC(N)=O)NC(=O)[C@@H](Cc3ccccc3)NC(=O)[C@H](Cc3c[nH]cn3)NC1=O)C(=O)N[C@@H](C)C(=O)N[C@@H](CCCCN)C(=O)N[C@H](CCCCN)C(=O)N[C@@H](CCCCN)C(=O)N[C@@H](Cc1c[nH]c3ccccc13)C(=O)N2
notes: also called c[c[Cys-Ala-His-D-Phe-Gln-Trp-Cys]-Ala-Lys-D-Lys-Lys-Trp]
B10: Chem. 71 (peptide)
peptide: cyclo(CPH[dF]HWCAKKKR)
modifications: disulfide 1-7
SMILES: C[C@@H]1NC(=O)[C@@H]2CSSC[C@H](NC(=O)[C@H](CCCNC(=N)N)NC(=O)[C@H](CCCCN)NC(=O)[C@H](CCCCN)NC(=O)[C@H](CCCCN)NC1=O)C(=O)N1CCC[C@H]1C(=O)N[C@@H](Cc1c[nH]cn1)C(=O)N[C@H](Cc1ccccc1)C(=O)N[C@@H](Cc1c[nH]cn1)C(=O)N[C@@H](Cc1c[nH]c3ccccc13)C(=O)N2
notes: also called c[c[Cys-Pro-His-D-Phe-His-Trp-Cys]-Ala-Lys-Lys-Lys-Arg]
B11: Chem. 60 (peptide)
peptide: cyclo(CAH[dF]HWCAKKKW)
modifications: disulfide 1-7
SMILES: C[C@@H]1NC(=O)[C@@H]2CSSC[C@H](NC(=O)[C@H](Cc3c[nH]c4ccccc34)NC(=O)[C@H](Cc3c[nH]cn3)NC(=O)[C@@H](Cc3ccccc3)NC(=O)[C@H](Cc3c[nH]cn3)NC1=O)C(=O)N[C@@H](C)C(=O)N[C@@H](CCCCN)C(=O)N[C@@H](CCCCN)C(=O)N[C@@H](CCCCN)C(=O)N[C@@H](Cc1c[nH]c3ccccc13)C(=O)N2
notes: also called c[c[Cys-Ala-His-D-Phe-His-Trp-Cys]-Ala-Lys-Lys-Lys-Trp]
B12: Chem. 76 (peptide)
peptide: cyclo(CKH[dF]HWCAKKKW)
modifications: disulfide 1-7
SMILES: C[C@@H]1NC(=O)[C@@H]2CSSC[C@H](NC(=O)[C@H](Cc3c[nH]c4ccccc34)NC(=O)[C@H](CCCCN)NC(=O)[C@H](CCCCN)NC(=O)[C@H](CCCCN)NC1=O)C(=O)N[C@@H](CCCCN)C(=O)N[C@@H](Cc1c[nH]cn1)C(=O)N[C@H](Cc1ccccc1)C(=O)N[C@@H](Cc1c[nH]cn1)C(=O)N[C@@H](Cc1c[nH]c3ccccc13)C(=O)N2
notes: also called c[c[Cys-Lys-His-D-Phe-His-Trp-Cys]-Ala-Lys-Lys-Lys-Trp]
B13: Chem. 51 (peptide)
peptide: cyclo(CEH[dF]RWCEH[dF]RW)
modifications: disulfide 1-7
SMILES: N=C(N)NCCC[C@@H]1NC(=O)[C@@H](Cc2ccccc2)NC(=O)[C@H](Cc2c[nH]cn2)NC(=O)[C@H](CCC(=O)O)NC(=O)[C@@H]2CSSC[C@H](NC(=O)[C@H](Cc3c[nH]c4ccccc34)NC1=O)C(=O)N[C@@H](CCC(=O)O)C(=O)N[C@@H](Cc1c[nH]cn1)C(=O)N[C@H](Cc1ccccc1)C(=O)N[C@@H](CCCNC(=N)N)C(=O)N[C@@H](Cc1c[nH]c3ccccc13)C(=O)N2
notes: also called c[c[Cys-Glu-His-D-Phe-Arg-Trp-Cys]-Glu-His-D-Phe-Arg-Trp]
B14: Chem. 54 (peptide)
peptide: cyclo(CRH[dF][Cit]WCRH[dF][Cit]W)
modifications: disulfide 1-7
SMILES: N=C(N)NCCC[C@@H]1NC(=O)[C@@H]2CSSC[C@H](NC(=O)[C@H](Cc3c[nH]c4ccccc34)NC(=O)[C@H](CCCNC(N)=O)NC(=O)[C@@H](Cc3ccccc3)NC(=O)[C@H](Cc3c[nH]cn3)NC1=O)C(=O)N[C@@H](CCCNC(=N)N)C(=O)N[C@@H](Cc1c[nH]cn1)C(=O)N[C@H](Cc1ccccc1)C(=O)N[C@@H](CCCNC(N)=O)C(=O)N[C@@H](Cc1c[nH]c3ccccc13)C(=O)N2
notes: also called c[c[Cys-Arg-His-D-Phe-Cit-Trp-Cys]-Arg-His-D-Phe-Cit-Trp]

How the values were obtained:
[1] = biological target: T1, human melanocortin 4 receptor (human, UniProt P32245 1-332); assay: competition with 125-NDP-α-MSH, BHK human MC4R membranes
T1 construct: whole, on cells; cAMP assay on whole BHK cells; also called MC4R; human MC4 receptor
T1 sequence (P32245 whole entry): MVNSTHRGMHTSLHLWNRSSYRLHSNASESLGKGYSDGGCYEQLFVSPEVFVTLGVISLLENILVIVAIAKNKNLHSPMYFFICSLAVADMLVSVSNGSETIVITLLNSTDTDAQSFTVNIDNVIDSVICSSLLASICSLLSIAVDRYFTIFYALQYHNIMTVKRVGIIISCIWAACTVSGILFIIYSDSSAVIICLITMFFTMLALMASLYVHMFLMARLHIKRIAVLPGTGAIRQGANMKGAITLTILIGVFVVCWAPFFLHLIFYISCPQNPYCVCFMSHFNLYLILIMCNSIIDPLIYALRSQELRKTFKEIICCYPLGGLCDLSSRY
Procedure: In order to assess the binding affinity of the selected compounds for the human MC4R competitive binding assays was performed with radiolabeled NDP-alpha MSH (¹²⁵NDP-α-MSH).
The assay was performed in 96-well filterplates (Unifilter) using BHK cells stably expressing the human MC4 receptor.
The BHK cell membranes were prepared from frozen or fresh cells that were homogenized in 20 mM HEPES pH 7.1, 5 mM MgCl₂, 1 mg/ml bacitracin (buffer 1) and centrifuged at 15000 rpm at 4° C., 10 min in a Sorvall RC 5B plus, SS-34 rotor. The supernatant was discarded, and the pellets were re-suspended in buffer 1, homogenized and centrifuged two more times. The final pellets were re-suspended in buffer 1 and the protein concentration was measured and adjusted with buffer 1 to 5 mg/ml and the membrane preparation was kept at −80° C. until assay. The assay was run on a dilution of this cell membrane suspension without any further preparation. The suspension was diluted to give maximally 10% specific binding, i.e. to approx. 50-100 fold dilution, optimized after each membrane preparation. The assay was performed in a total volume of 200 μl: 50 μl of cell suspension, 50 μl of ¹²⁵NDP-α-MSH (apx. […] in final concentration), 50 μl of test compound and 50 μl binding buffer were mixed and incubated for 2 h at 25° C. (binding buffer: 25 mM HEPES, pH 7.0, 1 mM CaCl₂), 1 mM MgSO₄, 1 mM EGTA, 0.005% Tween™ 20 and 0.1% HSA or, alternatively, 0.1% ovalbumin (Sigma; catalogue No. A-5503)). Test compounds were dissolved in 100% DMSO and diluted in binding buffer in a dose range from 1 μM to 0.001 nM. Radiolabelled ligand and membranes were diluted in binding buffer. The incubation was stopped by dilution with 8×100 μl ice-cold 0.9% NaCl. The radioactivity retained on the filters was counted using a Packard Topcounter. The data were analysed by non-linear regression analysis of binding curves, using the Windows™ program GraphPad™ Prism (GraphPad Software, USA).

[2] = biological target: T1, human melanocortin 4 receptor; assay: cell-based or functional assay
[3] = biological target: human melanocortin 1 receptor (human, UniProt Q01726 1-317); assay: cell-based or functional assay
Sequence of human melanocortin 1 receptor (Q01726 whole entry): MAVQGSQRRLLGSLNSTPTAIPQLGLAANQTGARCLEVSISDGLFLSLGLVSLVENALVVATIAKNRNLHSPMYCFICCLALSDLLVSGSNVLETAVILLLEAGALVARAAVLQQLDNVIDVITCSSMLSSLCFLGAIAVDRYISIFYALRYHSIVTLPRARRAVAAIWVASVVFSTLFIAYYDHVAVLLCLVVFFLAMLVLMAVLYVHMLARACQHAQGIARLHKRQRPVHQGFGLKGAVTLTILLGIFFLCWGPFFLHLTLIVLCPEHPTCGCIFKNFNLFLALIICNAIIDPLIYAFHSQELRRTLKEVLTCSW

Row | Binder | Ki [1] | MC4R cAMP EC50 [2] | MC1R cAMP EC50 [3]
1 | B1 | 0.99 nM | 0.21 nM | 6.47 nM
2 | B2 | 47.9 nM | 14.9 nM | 198 nM
3 | B3 | 19.9 nM | 1.17 nM | 66.2 nM
4 | B4 | 0.76 nM | 0.23 nM | 47.7 nM
5 | B5 | 9.47 nM | 11 nM | > 10 nM
6 | B6 | 0.33 nM | 0.1 nM | 4.14 nM
7 | B7 | 0.13 nM | 0.17 nM | > 1 nM
8 | B8 | 0.11 nM | 0.44 nM | 68 nM
9 | B9 | 0.21 nM | 0.19 nM | 10.4 nM
10 | B10 | 0.05 nM | 0.08 nM | 33.2 nM
11 | B11 | 0.1 nM | 0.17 nM | 53.3 nM
12 | B12 | 0.09 nM | 0.16 nM | 21.8 nM
13 | B13 | 0.5 nM | 0.2 nM | 2.69 nM
14 | B14 | 0.21 nM | 0.04 nM | 0.29 nM
